{"source": "paper PMC6540150", "origin": "cited, not measured here", "target": "SOUL BH3 (Homo sapiens) (UniProt Q9Y5Z4)"}
{"substance": "Bcl-xL (from UniProt Q07817)", "values": [{"measurement": "Kd", "value": 40, "unit": "µM"}]}
